This passage reports Km, kcat and kcat/Km results from article PMC8072286, “Gcn5-Related N-Acetyltransferases (GNATs) With a Catalytic Serine Residue Can Play Ping-Pong Too” (Frontiers in Molecular Biosciences, 2021).

Substrate in this series: CCCCCCCC(=O)N(C)CCN
As to the kind of experiment: steady-state acetyltransferase assay, substrate saturation. The following applies: AcCoA held at 0.5 mM; NANMO 0-3.5 mM, used as hydrochloride. Type of series: biochemical, Pseudomonas aeruginosa. An excerpt:
steady-state acetyltransferase assay, substrate saturation on PA3944

B1: PA3944 (Pseudomonas aeruginosa PAO1) (protein)
chain: MNANLPPSAISELHGPRLLLRAWRDSDREAFAEMCADPQVMEFFPSVLDRAQSDALVDRVQAHFAERGYGPWALELPGEAAFIGFTGLFDVTMDVHFAPTVEIGWRLAPAYWGRGLAREAAETALDFAFERLRLPEVVAFTTPPNRRSWGLMERLGMRRDPAEDFDHPLLAADHPMRRHILYRVDAARWAER
notes: heterologous expression; N-terminal polyhistidine tag kept for kinetics, removed for crystallization; monomer in solution
As usually defined, the Km is the substrate concentration at which the rate is half of its maximum. A word on the kcat: it is the maximal rate divided by the concentration of active sites. A word on the kcat/Km: it is the turnover number divided by the Michaelis constant. On to B1, for which the Km came to 1070 ± 30 µM, the kcat came to 0.41 s⁻¹ and the kcat/Km turned out to be 380 M⁻¹ s⁻¹.
